Source: US20140087995A1 (published 2014)
Numbered stars: 1 amine (or outer) side, 2 acyl side, 3 side chain; on linkers, the order of the positions; unused ones are H or OH. Bridge positions count the residues as written; N and C are the ends. Side chains are listed from the residue outwards. Ends that are not written are not given here. * marks the point of attachment. C20 diacid = O=C(O)CCCCCCCCCCCCCCCCCCC(=O)*; γGlu = O=C(O)[C@H](CCC(=O)[*:2])N[*:1]; AEEA = NCCOCCOCC(=O)O

T1: human amylin receptor (amylin 3(a) receptor: human calcitonin receptor co-expressed with RAMP-3) (human, UniProt P30988 25-474; O60896 24-148, limits assumed)
T1 sequence (looked up) 1: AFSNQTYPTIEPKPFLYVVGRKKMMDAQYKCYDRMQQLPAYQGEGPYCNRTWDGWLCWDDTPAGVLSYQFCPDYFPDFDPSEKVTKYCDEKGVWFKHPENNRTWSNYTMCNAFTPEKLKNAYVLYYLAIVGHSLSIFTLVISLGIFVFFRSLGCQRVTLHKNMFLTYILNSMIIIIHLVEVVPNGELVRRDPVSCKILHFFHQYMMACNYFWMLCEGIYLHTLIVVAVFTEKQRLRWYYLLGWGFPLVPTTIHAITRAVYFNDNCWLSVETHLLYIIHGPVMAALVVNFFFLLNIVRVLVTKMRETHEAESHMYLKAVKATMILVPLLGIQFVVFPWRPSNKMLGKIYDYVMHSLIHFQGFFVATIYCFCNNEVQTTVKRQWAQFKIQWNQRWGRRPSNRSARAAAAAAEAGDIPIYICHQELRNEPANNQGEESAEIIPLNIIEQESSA
T1 sequence (looked up) 2: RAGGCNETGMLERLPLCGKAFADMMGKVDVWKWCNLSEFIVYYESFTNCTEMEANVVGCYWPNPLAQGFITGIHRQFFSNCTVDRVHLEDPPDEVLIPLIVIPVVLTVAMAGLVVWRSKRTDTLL

T2: human calcitonin receptor (human, UniProt P30988 25-474)
T2 sequence (looked up): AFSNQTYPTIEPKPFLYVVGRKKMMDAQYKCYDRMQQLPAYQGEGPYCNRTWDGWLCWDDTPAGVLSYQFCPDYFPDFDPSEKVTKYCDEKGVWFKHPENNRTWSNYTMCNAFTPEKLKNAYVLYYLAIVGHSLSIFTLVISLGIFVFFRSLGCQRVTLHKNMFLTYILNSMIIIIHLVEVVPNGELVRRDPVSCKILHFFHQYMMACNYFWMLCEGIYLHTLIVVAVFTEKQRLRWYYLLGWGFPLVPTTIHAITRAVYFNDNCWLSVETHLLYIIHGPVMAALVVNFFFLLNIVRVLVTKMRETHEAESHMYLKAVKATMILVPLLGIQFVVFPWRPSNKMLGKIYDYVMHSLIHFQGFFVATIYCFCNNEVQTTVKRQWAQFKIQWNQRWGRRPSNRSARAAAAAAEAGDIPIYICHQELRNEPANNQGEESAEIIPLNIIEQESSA


What was measured:
[1] = target: T1, human amylin receptor (amylin 3(a) …); test: cell-based or functional assay
[2] = target: T2, human calcitonin receptor; test: cell-based or functional assay

Binder	Ratio hCT/hAmylin funct. [1]	hAmylin-R funct. EC50 [1] [nM]	hCTR funct. EC50 [2] [nM]
K([AEEA-C20 diacid])CNTATCATQRLANFLRHSSPNFGAIPSSTNVGHNTY-NH2 (disulfide 2-7; N-terminus assumed; SMILES CC[C@H](C)[C@H](NC(=O)[C@H](C)NC(=O)CNC(=O)[C@H](Cc1ccccc1)NC(=O)[C@H](CC(N)=O)NC(=O)[C@@H]1CCCN1C(=O)[C@H](CO)NC(=O)[C@H](CO)NC(=O)[C@H](Cc1c[nH]cn1)NC(=O)[C@H](CCCNC(=N)N)NC(=O)[C@H](CC(C)C)NC(=O)[C@H](Cc1ccccc1)NC(=O)[C@H](CC(N)=O)NC(=O)[C@H](C)NC(=O)[C@H](CC(C)C)NC(=O)[C@H](CCCNC(=N)N)NC(=O)[C@H](CCC(N)=O)NC(=O)[C@@H](NC(=O)[C@H](C)NC(=O)[C@@H]1CSSC[C@H](NC(=O)[C@@H](N)CCCCNC(=O)COCCOCCNC(=O)CCCCCCCCCCCCCCCCCCC(=O)O)C(=O)N[C@@H](CC(N)=O)C(=O)N[C@@H]([C@@H](C)O)C(=O)N[C@@H](C)C(=O)N[C@@H]([C@@H](C)O)C(=O)N1)[C@@H](C)O)C(=O)N1CCC[C@H]1C(=O)N[C@@H](CO)C(=O)N[C@@H](CO)C(=O)N[C@H](C(=O)N[C@@H](CC(N)=O)C(=O)N[C@H](C(=O)NCC(=O)N[C@@H](Cc1c[nH]cn1)C(=O)N[C@@H](CC(N)=O)C(=O)N[C@H](C(=O)N[C@@H](Cc1ccc(O)cc1)C(N)=O)[C@@H](C)O)C(C)C)[C@@H](C)O, also called compound 91) [N^ε1-[2-[2-[2-(19-carboxynonadecanoylamino)ethoxy]ethoxy]acetyl]-[Arg17,Pro21,Pro27,His34]-h-amylin]	36.9	0.04	1.48
K([AEEA-AEEA-γGlu-C20 diacid])CNTATCATQRLANFLRHSSPNFGAIPSSTNVGRNTY-NH2 (disulfide 2-7; N-terminus assumed; SMILES CC[C@H](C)[C@H](NC(=O)[C@H](C)NC(=O)CNC(=O)[C@H](Cc1ccccc1)NC(=O)[C@H](CC(N)=O)NC(=O)[C@@H]1CCCN1C(=O)[C@H](CO)NC(=O)[C@H](CO)NC(=O)[C@H](Cc1c[nH]cn1)NC(=O)[C@H](CCCNC(=N)N)NC(=O)[C@H](CC(C)C)NC(=O)[C@H](Cc1ccccc1)NC(=O)[C@H](CC(N)=O)NC(=O)[C@H](C)NC(=O)[C@H](CC(C)C)NC(=O)[C@H](CCCNC(=N)N)NC(=O)[C@H](CCC(N)=O)NC(=O)[C@@H](NC(=O)[C@H](C)NC(=O)[C@@H]1CSSC[C@H](NC(=O)[C@@H](N)CCCCNC(=O)COCCOCCNC(=O)COCCOCCNC(=O)CC[C@H](NC(=O)CCCCCCCCCCCCCCCCCCC(=O)O)C(=O)O)C(=O)N[C@@H](CC(N)=O)C(=O)N[C@@H]([C@@H](C)O)C(=O)N[C@@H](C)C(=O)N[C@@H]([C@@H](C)O)C(=O)N1)[C@@H](C)O)C(=O)N1CCC[C@H]1C(=O)N[C@@H](CO)C(=O)N[C@@H](CO)C(=O)N[C@H](C(=O)N[C@@H](CC(N)=O)C(=O)N[C@H](C(=O)NCC(=O)N[C@@H](CCCNC(=N)N)C(=O)N[C@@H](CC(N)=O)C(=O)N[C@H](C(=O)N[C@@H](Cc1ccc(O)cc1)C(N)=O)[C@@H](C)O)C(C)C)[C@@H](C)O, also called compound 95)	–	0.651	21.5
K([AEEA-γGlu-C20 diacid])CNTATCATQRLARFLRHSSPNFGAIPSSTNVGSNTY-NH2 (disulfide 2-7; N-terminus assumed; SMILES CC[C@H](C)[C@H](NC(=O)[C@H](C)NC(=O)CNC(=O)[C@H](Cc1ccccc1)NC(=O)[C@H](CC(N)=O)NC(=O)[C@@H]1CCCN1C(=O)[C@H](CO)NC(=O)[C@H](CO)NC(=O)[C@H](Cc1c[nH]cn1)NC(=O)[C@H](CCCNC(=N)N)NC(=O)[C@H](CC(C)C)NC(=O)[C@H](Cc1ccccc1)NC(=O)[C@H](CCCNC(=N)N)NC(=O)[C@H](C)NC(=O)[C@H](CC(C)C)NC(=O)[C@H](CCCNC(=N)N)NC(=O)[C@H](CCC(N)=O)NC(=O)[C@@H](NC(=O)[C@H](C)NC(=O)[C@@H]1CSSC[C@H](NC(=O)[C@@H](N)CCCCNC(=O)COCCOCCNC(=O)CC[C@H](NC(=O)CCCCCCCCCCCCCCCCCCC(=O)O)C(=O)O)C(=O)N[C@@H](CC(N)=O)C(=O)N[C@@H]([C@@H](C)O)C(=O)N[C@@H](C)C(=O)N[C@@H]([C@@H](C)O)C(=O)N1)[C@@H](C)O)C(=O)N1CCC[C@H]1C(=O)N[C@@H](CO)C(=O)N[C@@H](CO)C(=O)N[C@H](C(=O)N[C@@H](CC(N)=O)C(=O)N[C@H](C(=O)NCC(=O)N[C@@H](CO)C(=O)N[C@@H](CC(N)=O)C(=O)N[C@H](C(=O)N[C@@H](Cc1ccc(O)cc1)C(N)=O)[C@@H](C)O)C(C)C)[C@@H](C)O, also called compound 82)	59.2	0.215	12.7
K([AEEA-γGlu-C20 diacid])CNTATCATQRLAAFLRHSSPNFGAIPSSTPVGSNTY-NH2 (disulfide 2-7; N-terminus assumed; SMILES CC[C@H](C)[C@H](NC(=O)[C@H](C)NC(=O)CNC(=O)[C@H](Cc1ccccc1)NC(=O)[C@H](CC(N)=O)NC(=O)[C@@H]1CCCN1C(=O)[C@H](CO)NC(=O)[C@H](CO)NC(=O)[C@H](Cc1c[nH]cn1)NC(=O)[C@H](CCCNC(=N)N)NC(=O)[C@H](CC(C)C)NC(=O)[C@H](Cc1ccccc1)NC(=O)[C@H](C)NC(=O)[C@H](C)NC(=O)[C@H](CC(C)C)NC(=O)[C@H](CCCNC(=N)N)NC(=O)[C@H](CCC(N)=O)NC(=O)[C@@H](NC(=O)[C@H](C)NC(=O)[C@@H]1CSSC[C@H](NC(=O)[C@@H](N)CCCCNC(=O)COCCOCCNC(=O)CC[C@H](NC(=O)CCCCCCCCCCCCCCCCCCC(=O)O)C(=O)O)C(=O)N[C@@H](CC(N)=O)C(=O)N[C@@H]([C@@H](C)O)C(=O)N[C@@H](C)C(=O)N[C@@H]([C@@H](C)O)C(=O)N1)[C@@H](C)O)C(=O)N1CCC[C@H]1C(=O)N[C@@H](CO)C(=O)N[C@@H](CO)C(=O)N[C@H](C(=O)N1CCC[C@H]1C(=O)N[C@H](C(=O)NCC(=O)N[C@@H](CO)C(=O)N[C@@H](CC(N)=O)C(=O)N[C@H](C(=O)N[C@@H](Cc1ccc(O)cc1)C(N)=O)[C@@H](C)O)C(C)C)[C@@H](C)O, also called compound 72)	–	0.106	4.76

Now from value to binder:

Ratio hCT/hAmylin funct. [1]	hAmylin-R funct. EC50 [1] [nM]	hCTR funct. EC50 [2] [nM]	Binder
–	0.181	3.8	K([AEEA-AEEA-γGlu-C20 diacid])CNTATCATQRLANFLRHSSPNFGAIPSSTPVGSNTY-NH2 (disulfide 2-7; N-terminus assumed; SMILES CC[C@H](C)[C@H](NC(=O)[C@H](C)NC(=O)CNC(=O)[C@H](Cc1ccccc1)NC(=O)[C@H](CC(N)=O)NC(=O)[C@@H]1CCCN1C(=O)[C@H](CO)NC(=O)[C@H](CO)NC(=O)[C@H](Cc1c[nH]cn1)NC(=O)[C@H](CCCNC(=N)N)NC(=O)[C@H](CC(C)C)NC(=O)[C@H](Cc1ccccc1)NC(=O)[C@H](CC(N)=O)NC(=O)[C@H](C)NC(=O)[C@H](CC(C)C)NC(=O)[C@H](CCCNC(=N)N)NC(=O)[C@H](CCC(N)=O)NC(=O)[C@@H](NC(=O)[C@H](C)NC(=O)[C@@H]1CSSC[C@H](NC(=O)[C@@H](N)CCCCNC(=O)COCCOCCNC(=O)COCCOCCNC(=O)CC[C@H](NC(=O)CCCCCCCCCCCCCCCCCCC(=O)O)C(=O)O)C(=O)N[C@@H](CC(N)=O)C(=O)N[C@@H]([C@@H](C)O)C(=O)N[C@@H](C)C(=O)N[C@@H]([C@@H](C)O)C(=O)N1)[C@@H](C)O)C(=O)N1CCC[C@H]1C(=O)N[C@@H](CO)C(=O)N[C@@H](CO)C(=O)N[C@H](C(=O)N1CCC[C@H]1C(=O)N[C@H](C(=O)NCC(=O)N[C@@H](CO)C(=O)N[C@@H](CC(N)=O)C(=O)N[C@H](C(=O)N[C@@H](Cc1ccc(O)cc1)C(N)=O)[C@@H](C)O)C(C)C)[C@@H](C)O, also called compound 96)
–	0.378	22.9	K([AEEA-γGlu-C20 diacid])CNTATCATQRLARFLRHSSPNFGAIPSSTPVGSNTY-NH2 (disulfide 2-7; N-terminus assumed; SMILES CC[C@H](C)[C@H](NC(=O)[C@H](C)NC(=O)CNC(=O)[C@H](Cc1ccccc1)NC(=O)[C@H](CC(N)=O)NC(=O)[C@@H]1CCCN1C(=O)[C@H](CO)NC(=O)[C@H](CO)NC(=O)[C@H](Cc1c[nH]cn1)NC(=O)[C@H](CCCNC(=N)N)NC(=O)[C@H](CC(C)C)NC(=O)[C@H](Cc1ccccc1)NC(=O)[C@H](CCCNC(=N)N)NC(=O)[C@H](C)NC(=O)[C@H](CC(C)C)NC(=O)[C@H](CCCNC(=N)N)NC(=O)[C@H](CCC(N)=O)NC(=O)[C@@H](NC(=O)[C@H](C)NC(=O)[C@@H]1CSSC[C@H](NC(=O)[C@@H](N)CCCCNC(=O)COCCOCCNC(=O)CC[C@H](NC(=O)CCCCCCCCCCCCCCCCCCC(=O)O)C(=O)O)C(=O)N[C@@H](CC(N)=O)C(=O)N[C@@H]([C@@H](C)O)C(=O)N[C@@H](C)C(=O)N[C@@H]([C@@H](C)O)C(=O)N1)[C@@H](C)O)C(=O)N1CCC[C@H]1C(=O)N[C@@H](CO)C(=O)N[C@@H](CO)C(=O)N[C@H](C(=O)N1CCC[C@H]1C(=O)N[C@H](C(=O)NCC(=O)N[C@@H](CO)C(=O)N[C@@H](CC(N)=O)C(=O)N[C@H](C(=O)N[C@@H](Cc1ccc(O)cc1)C(N)=O)[C@@H](C)O)C(C)C)[C@@H](C)O, also called compound 64)
